Data: patent publication US20240052042A1 (Novartis, published 2024)

T1: rat NPR1 (rNPR1) (rat, UniProt P18910 29-469, limits assumed)
T1 construct: Soluble antigen
T1 sequence: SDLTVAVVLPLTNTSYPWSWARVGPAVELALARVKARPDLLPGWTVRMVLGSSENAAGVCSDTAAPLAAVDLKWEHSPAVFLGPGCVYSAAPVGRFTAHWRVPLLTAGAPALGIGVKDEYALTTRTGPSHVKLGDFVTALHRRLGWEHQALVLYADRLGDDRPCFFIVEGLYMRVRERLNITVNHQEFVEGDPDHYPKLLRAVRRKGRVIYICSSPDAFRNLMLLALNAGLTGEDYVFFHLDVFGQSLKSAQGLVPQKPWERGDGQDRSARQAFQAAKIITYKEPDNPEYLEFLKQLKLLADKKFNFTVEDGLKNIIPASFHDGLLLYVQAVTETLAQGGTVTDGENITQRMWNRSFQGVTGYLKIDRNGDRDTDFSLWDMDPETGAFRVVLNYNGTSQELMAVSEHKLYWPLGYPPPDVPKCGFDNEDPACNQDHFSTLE

T2: human Natriuretic Peptide Receptor 1 (hNPR1) (human, UniProt P16066 33-473, limits assumed)
T2 construct: pannings used NPR1-hFc; also called NPR1-hFc
T2 sequence: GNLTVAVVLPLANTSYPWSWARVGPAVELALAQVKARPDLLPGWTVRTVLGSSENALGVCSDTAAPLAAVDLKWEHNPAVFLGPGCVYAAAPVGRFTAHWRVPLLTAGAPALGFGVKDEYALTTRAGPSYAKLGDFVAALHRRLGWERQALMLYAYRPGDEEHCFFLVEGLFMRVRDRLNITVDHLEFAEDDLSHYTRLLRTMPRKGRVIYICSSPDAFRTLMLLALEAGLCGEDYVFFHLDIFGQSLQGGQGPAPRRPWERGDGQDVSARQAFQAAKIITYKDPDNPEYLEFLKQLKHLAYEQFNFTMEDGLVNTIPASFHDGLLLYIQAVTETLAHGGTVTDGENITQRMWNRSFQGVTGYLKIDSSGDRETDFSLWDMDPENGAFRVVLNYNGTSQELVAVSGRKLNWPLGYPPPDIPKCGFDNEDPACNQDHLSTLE

T3: hNPR1-ANP complex (human, UniProt P01160 124-151, limits assumed)
T3 construct: hNPR1 antigen in the presence of ANP; also called hNPR1 + 100 nM ANP
T3 sequence: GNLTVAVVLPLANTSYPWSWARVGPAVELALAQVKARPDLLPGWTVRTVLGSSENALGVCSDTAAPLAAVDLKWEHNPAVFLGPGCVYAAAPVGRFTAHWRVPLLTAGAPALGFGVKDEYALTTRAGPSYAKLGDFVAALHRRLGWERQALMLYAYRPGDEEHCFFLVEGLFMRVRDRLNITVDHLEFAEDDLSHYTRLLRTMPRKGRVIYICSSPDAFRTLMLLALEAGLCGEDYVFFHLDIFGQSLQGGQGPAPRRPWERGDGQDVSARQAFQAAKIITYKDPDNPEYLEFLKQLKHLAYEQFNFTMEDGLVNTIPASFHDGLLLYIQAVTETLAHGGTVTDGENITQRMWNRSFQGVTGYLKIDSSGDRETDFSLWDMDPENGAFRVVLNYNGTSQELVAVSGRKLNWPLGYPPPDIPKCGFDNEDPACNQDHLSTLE
T3 sequence (peptide): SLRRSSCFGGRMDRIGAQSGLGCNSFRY

T4: rNPR1-ANP complex (rat, UniProt P01160 124-151 (human entry), limits assumed)
T4 construct: rNPR1 antigen in the presence of ANP; also called rNPR1 + 100 nM ANP
T4 sequence: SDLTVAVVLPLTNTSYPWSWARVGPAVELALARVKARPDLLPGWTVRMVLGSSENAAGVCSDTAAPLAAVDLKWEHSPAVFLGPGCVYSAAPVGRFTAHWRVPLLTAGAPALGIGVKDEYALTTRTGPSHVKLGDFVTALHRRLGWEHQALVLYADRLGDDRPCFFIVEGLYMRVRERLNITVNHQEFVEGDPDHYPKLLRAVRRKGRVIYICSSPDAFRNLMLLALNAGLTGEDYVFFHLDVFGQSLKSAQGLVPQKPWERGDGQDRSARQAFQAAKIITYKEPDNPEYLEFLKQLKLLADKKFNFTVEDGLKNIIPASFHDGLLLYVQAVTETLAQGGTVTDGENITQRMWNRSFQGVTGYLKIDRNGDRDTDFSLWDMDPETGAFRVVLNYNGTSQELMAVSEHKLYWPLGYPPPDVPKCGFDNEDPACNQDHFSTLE
T4 sequence (peptide): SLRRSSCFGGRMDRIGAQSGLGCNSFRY


Assays:
Experiment in all cases: SET, FabCys
[1] = target: T1, rat NPR1 (rNPR1)
[2] = target: T2, human Natriuretic Peptide Receptor 1 …
[3] = target: T3, hNPR1-ANP complex
[4] = target: T1, rat NPR1 (rNPR1); remark: listed apart in the source
[5] = target: T4, rNPR1-ANP complex

| rat/human KD ratio [1] | Kd [2] | Kd [3] | Kd [4] | Kd [5] | Binder |
| --- | --- | --- | --- | --- | --- |
| < 5 | 32 nM | 0.1 nM | 3.3 nM | 0.3 nM | XX04 (FabCys format) (Fab, V domains shown, Monovalent FabCys) VH: QVQLLESGGGLVQPGGSLRLSCAASGFTFSSYWMNWVRQAPGKGLEWVSAISSDGSYTYYADSVKGRFTISRDNSKNTLYLQMNSLRAEDTAVYYCARDRYSMIYSYGAGAFDYWGQGTLVTVSS VL: DIQMTQSPSSLSASVGDRVTITCRASQGISSYLAWYQQKPGKAPKLLIYTASTLQSGVPSRFSGSGSGTDFTLTISSLQPEDFATYYCQQEWVKPRTFGQGTKVEIK |
| < 5 | 21 nM | 0.2 nM | 2.9 nM | 0.5 nM | XX07 (FabCys format) (Fab, V domains shown, Monovalent FabCys) VH: QVQLLESGGGLVQPGGSLRLSCAASGFTFSSYWMNWVRQAPGKGLEWVSAISSDGSYTYYADSVKGRFTISRDNSKNTLYLQMNSLRAEDTAVYYCARDRYSMIYSYGAGAFDYWGQGTLVTVSS VL: DIQMTQSPSSLSASVGDRVTITCRASQGISSYLAWYQQKPGKAPKLLIYTASTLQSGVPSRFSGSGSGTDFTLTISSLQPEDFATYYCQQIWTVPRTFGQGTKVEIK |
| < 5 | 10 nM | 0.1 nM | 2.3 nM | 0.3 nM | XX06 (FabCys format) (Fab, V domains shown, Monovalent FabCys) VH: QVQLLESGGGLVQPGGSLRLSCAASGFTFSSYWMNWVRQAPGKGLEWVSAISSDGSYTYYADSVKGRFTISRDNSKNTLYLQMNSLRAEDTAVYYCARDRYSMIYSYGAGAFDYWGQGTLVTVSS VL: DIQMTQSPSSLSASVGDRVTITCRASQGISSYLAWYQQKPGKAPKLLIYTASTLQSGVPSRFSGSGSGTDFTLTISSLQPEDFATYYCQQTWRKPRTFGQGTKVEIK |
| < 5 | 16 nM | 0.2 nM | 3 nM | 0.5 nM | XX12 (FabCys format) (Fab, V domains shown, Monovalent FabCys) VH: QVQLLESGGGLVQPGGSLRLSCAASGFTFSSYWMNWVRQAPGKGLEWVSAISSDGSYTYYADSVKGRFTISRDNSKNTLYLQMNSLRAEDTAVYYCARDRYSMIYSYGAGAFDYWGQGTLVTVSS VL: DIQMTQSPSSLSASVGDRVTITCRASQGISSYLAWYQQKPGKAPKLLIYTASTLQSGVPSRFSGSGSGTDFTLTISSLQPEDFATYYCQQIWMAPRTFGQGTKVEIK |
| < 5 | 22 nM | 0.2 nM | 1.1 nM | 0.1 nM | XX03 (FabCys format) (Fab, V domains shown, Monovalent FabCys) VH: EVQLLESGGGLVQPGGSLRLSCAASGFTFSSYWMNWVRQAPGKGLEWVSVIESKGNYIFYADSVKGRFTISRDNSKNTLYLQMNSLRAEDTAVYYCARDRYSMIYSYGAGAFDYWGQGTLVTVSS VL: DIQMTQSPSSLSASVGDRVTITCRASQGISSYLAWYQQKPGKAPKLLIYTASTLQSGVPSRFSGSGSGTDFTLTISSLQPEDFATYYCMQSYEKPRTFGQGTKVEIK |
| < 5 | 43 nM | 0.3 nM | 1.4 nM | 0.5 nM | XX01 (FabCys format) (Fab, V domains shown, Monovalent FabCys) VH: EVQLLESGGGLVQPGGSLRLSCAASGFTFNTHYIHWVRQAPGKGLEWVSSISSSGQSTYYADSVKGRFTISRDNSKNTLYLQMNSLRAEDTAVYYCARERGYVYYHMFDPWGQGTLVTVSS VL: DIVLTQSPATLSLSPGERATLSCRASQSITRNYLAWYQQKPGQAPRLLIYGASSRATGIPARFSGSGSGTDFTLTISSLEPEDFAVYYCQQHSMYPRTFGQGTKVEIK |
| < 5 | 46 nM | 0.3 nM | 1.8 nM | 0.2 nM | XX08 (FabCys format) (Fab, V domains shown, Monovalent FabCys) VH: EVQLLESGGGLVQPGGSLRLSCAASGFTFNTHYIHWVRQAPGKGLEWVSSIGGQGGMTLYADSVKGRFTISRDNSKNTLYLQMNSLRAEDTAVYYCARERGYVYYHMFDPWGQGTLVTVSS VL: DIVLTQSPATLSLSPGERATLSCRASQSITRNYLAWYQQKPGQAPRLLIYGASSRATGIPARFSGSGSGTDFTLTISSLEPEDFAVYYCQQHSMYPRTFGQGTKVEIK |
